Measured values as given in patent US6750046.

Target: thrombin
Assay: cell-based or functional assay
Conditions: for Antithrombin Units per mg Oil Body Proteins: scale: antithrombin units per mg oil body protein; for Thrombin Units Per Assay: scale: thrombin units per assay

Row | Antithrombin Units per mg Oil Body Proteins | Thrombin Units Per Assay | Molecule
1 | 0.55 | 0.0065 | hirudin released from the oleosin/hirudin fusion by Factor Xa
2 | < 0.001 | 0.14 | Arabidopsis oleosin/hirudin fusion (protein, part only; not given: Factor Xa cleavage junction, Hirudo medicinalis, not shown: small tags and cut ends) chain, part: MADTARGTHHDIIGRDQYPMMGRDRDQYQMSGRGSDYSKSRQIAKAATAVTAGGSLLVLSSLTLVGTVIALTVATPLLVIFSPILVPALITVALLITGFLSSGGFGIAAITVFSWIYKYATGEHPQGSDKLDSARMKLGSKAQDLKDRAQYYGQQHTGGEHDRDRTRGGQHTT
